The source of these data is article PMC11912937.

For the test, the target named is FACT complex (SPT16/SSRP1), full length, untreated (human) (UniProt Q9Y5B9). Description: SEC; analytical SEC of CCAN with different amounts of FACT; peak fractions on SDS-PAGE with TCE, tryptophan fluorescence of the bands normalised to the number of tryptophans and to SPT16.
FACT complex (SPT16/SSRP1), full length, untreated (human), sequence (Q9Y5B9 whole entry, chain 1 of 2): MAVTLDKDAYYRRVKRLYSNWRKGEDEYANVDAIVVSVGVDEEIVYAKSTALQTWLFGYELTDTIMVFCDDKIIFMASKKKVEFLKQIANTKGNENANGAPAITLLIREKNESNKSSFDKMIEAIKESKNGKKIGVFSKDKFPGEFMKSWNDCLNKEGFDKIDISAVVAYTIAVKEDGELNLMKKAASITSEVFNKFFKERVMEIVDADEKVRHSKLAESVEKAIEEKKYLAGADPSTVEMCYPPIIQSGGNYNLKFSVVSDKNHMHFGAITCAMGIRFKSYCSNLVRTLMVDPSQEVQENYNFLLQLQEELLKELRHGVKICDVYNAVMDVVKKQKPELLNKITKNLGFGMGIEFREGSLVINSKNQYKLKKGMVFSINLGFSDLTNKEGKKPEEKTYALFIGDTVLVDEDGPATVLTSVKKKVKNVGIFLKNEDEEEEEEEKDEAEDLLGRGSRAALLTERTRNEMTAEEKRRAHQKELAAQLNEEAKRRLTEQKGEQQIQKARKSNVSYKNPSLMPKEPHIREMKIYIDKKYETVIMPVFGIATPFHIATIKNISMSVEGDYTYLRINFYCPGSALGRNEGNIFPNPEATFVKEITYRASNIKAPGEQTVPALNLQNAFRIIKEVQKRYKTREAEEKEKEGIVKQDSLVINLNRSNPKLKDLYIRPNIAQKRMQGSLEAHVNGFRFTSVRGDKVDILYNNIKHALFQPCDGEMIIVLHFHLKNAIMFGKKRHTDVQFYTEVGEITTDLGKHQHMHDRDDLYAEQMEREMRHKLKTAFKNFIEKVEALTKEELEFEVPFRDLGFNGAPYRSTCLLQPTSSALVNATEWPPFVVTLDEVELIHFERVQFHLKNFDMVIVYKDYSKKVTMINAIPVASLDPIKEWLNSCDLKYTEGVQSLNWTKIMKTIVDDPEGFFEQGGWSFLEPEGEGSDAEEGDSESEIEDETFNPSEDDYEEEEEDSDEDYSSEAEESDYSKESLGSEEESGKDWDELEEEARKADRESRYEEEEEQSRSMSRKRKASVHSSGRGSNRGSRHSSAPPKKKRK
FACT complex (SPT16/SSRP1), full length, untreated (human), sequence (Q08945 whole entry, chain 2 of 2, further chain): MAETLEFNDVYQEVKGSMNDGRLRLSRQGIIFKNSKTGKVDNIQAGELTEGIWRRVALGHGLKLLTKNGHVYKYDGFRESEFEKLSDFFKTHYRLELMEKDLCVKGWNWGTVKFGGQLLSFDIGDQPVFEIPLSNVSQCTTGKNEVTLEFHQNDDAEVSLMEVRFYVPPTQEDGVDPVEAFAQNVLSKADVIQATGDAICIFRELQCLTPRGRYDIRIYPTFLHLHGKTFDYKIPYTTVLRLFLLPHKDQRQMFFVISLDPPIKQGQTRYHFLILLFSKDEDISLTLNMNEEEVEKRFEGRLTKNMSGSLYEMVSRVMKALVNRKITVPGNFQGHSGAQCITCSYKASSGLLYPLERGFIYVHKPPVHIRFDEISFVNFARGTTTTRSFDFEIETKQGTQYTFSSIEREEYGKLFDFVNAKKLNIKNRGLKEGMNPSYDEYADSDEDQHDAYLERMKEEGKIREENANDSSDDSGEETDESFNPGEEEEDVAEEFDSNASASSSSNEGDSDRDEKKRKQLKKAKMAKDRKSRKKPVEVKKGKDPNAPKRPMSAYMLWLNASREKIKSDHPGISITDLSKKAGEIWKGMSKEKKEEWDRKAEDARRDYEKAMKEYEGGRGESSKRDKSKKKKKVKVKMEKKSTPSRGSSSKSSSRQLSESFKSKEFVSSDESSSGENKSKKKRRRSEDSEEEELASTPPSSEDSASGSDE

“CCAN, 16-subunit constitutive centromere-associated network reconstituted with CENP-C^2–545 (from UniProt Q03188 2-545; Q9H3R5 1-247; Q92674 1-756; Q9BS16 1-269; Q9NSP4 1-180; Q8N0S6 1-344; Q96H22 1-339; Q9BU64 1-300; Q6IPU0 1-288; Q7L2Z9 1-268; Q71F23 1-418; Q13352 1-177; Q96BT3 1-561; Q5EE01 1-88; Q8N2Z9 1-138; A8MT69 1-81) (complex)”: the stoichiometry N (FACT per CCAN) worked out at 1.
